{
  "source": "patent US20250019450A1",
  "about": "(DIAGONAL THERAPEUTICS, published 2025)",
  "binders": {"B1": {"name": "DGL454 (bispecific antibody, V domains shown)", "V domain 1": "QVQLQESGGALVQPGGSLRLSCVVSGFTSDYFAIGWFRQAPGKEREGVSCIGSSDGSTIYSDSVKGRFTISRDNAKNTVYLQMNSLKPEDTGVYYCALDRGRRTIIGYACYATMKYWGKGTPVTVEP", "V domain 2": "QVQLVESGGGLVQPGGSLRLSCAASGFTFEPYDMSWFRQAPGKGPEWVSAIDKGGGAGATYYADSVKGRFTISRDNAKKTLYLQMKSLKPEDTAVYYCAITAGPYSDSTPRVAYRGEGTQVTVEP"}, "B2": {"name": "DGL478 (bispecific antibody, V domains shown)", "V domain 1": "QVQLVESGGGLVQAGGSLRLSCAAPGRYAVGWFRQAPGKEYEFVAAITVSGGSKYYEDSVKGRFAISRDNAKNTVYLQMNSLKAEDTAVYYCAARTPKFGSGWYNRRGEYDYWGQGTQVTVEP", "V domain 2": "QVQLVESGGGLVQAGGSLRLSCAASGRIFSAYRMGWFRQAPGKEREFVAGITWRGQTTYYAASVKGRFTISKDNAKKTVYLQMNSLKPEETAVYYCAVETNGLGRWDRPSEYDYWGQGTQVTVEP"}, "B3": {"name": "DGL503 (bispecific antibody, V domains shown)", "V domain 1": "EVQLVESGGGLVQAGGSLRLSCAASGLTFRNYAMAWFRQAPGKEREFVAGITWGGGLTHYVDSVKGRFTISRDNGKNTVYLQMNSLKSEDTAVYYCAGKTQGSTWYHLTPDGYDYWGQGTQVTVEP", "V domain 2": "B2 V domain 2"}, "B4": {"name": "DGL552 (bispecific antibody, V domains shown)", "V domain 1": "QVQLVESGGGLVQAGGSLRLSCAASGRTFGTYAMGWFRQAPGKERDFVARISNSGAFTHYADSVKGRFTISRDNAKNTVYLHMNSLENGDTAAYYCVATRGTNSAYYTRSTMYEYWGQGTQVTVEP", "V domain 2": "B2 V domain 2"}, "B5": {"name": "DGL533 (bispecific antibody, V domains shown)", "V domain 1": "EVQLVESGGGLVQPGGSLTLSCTASGFRFSDRSMGWYRQAPGKQRELVAAITVGGSTNYADSVKGRFTISRDNAKNTVYLQMNSLKPEDTALYYCNRRYPPDDYWGQGTQVTVEP", "V domain 2": "QVQLVESGGGLVQAGGSLRLSCAASGRTFSSYAMGWFRQAPGKEREFVSAISWSGLSTYYVESVQGRFTISRDNAKNTVYLQMNSLKPEDTAVYYCAASRIYTNYVARSYEYDDWGQGTQVTVEP"}, "B6": {"name": "DGL541 (bispecific antibody, V domains shown)", "V domain 1": "QVQLVESGGGLVQAGGSLRLSCAASGRTFRTYAMGWFRQAPGKDREVVGIAAWKVASTYYVDYGDSVRGRFTISRDDAKSTVYLQMNNLMPEDTAVYYCAAGAFRTDWRSYAYWGQGTQVTVEP", "V domain 2": "B5 V domain 2"}, "B7": {"name": "DGL504 (bispecific antibody, V domains shown)", "V domain 1": "B3 V domain 1", "V domain 2": "B5 V domain 2"}, "B8": {"name": "DGL575 (bispecific antibody, V domains shown)", "V domain 1": "QVQLVESGGGLVQAGGSLRLSCAASRSISSFNEMAWYRQAPGEQRELVATIVSTVGFTNYADSVKGRFTISRDNAKNTVYLQMNSLKAEDTAVYYCNARRISTDYWGQGTQVTVEP", "V domain 2": "QVQLQESGPGLVKPSQTLSLTCTVSGGSITTNYYYWSWIRQPPGKGLEWMGAIAYSGSTYYSPSLKSRTSISRDTSKNQFTLQLSSVTPEDTAVYYCASGINFYSNYPTLNEYDYWGQGTQVTVEP"}, "B9": {"name": "DGL574 (bispecific antibody, V domains shown)", "V domain 1": "B8 V domain 1", "V domain 2": "QVQLVESGGGLVQAGGSLRLSCAASGRTFSRYRMGWFRQAPGKEREFVAAITKSGATTYDADSVKGRFTISRDNAKNTLYLQMNSLKPEDTAVYYCAASYHSNWWPKNADEYAYWGQGTQVTVEP"}, "B10": {"name": "DGL579 (bispecific antibody, V domains shown)", "V domain 1": "B8 V domain 1", "V domain 2": "B5 V domain 2"}, "B11": {"name": "DGL441 (bispecific antibody, human IgG1, lambda)", "heavy 1": "not shown", "heavy 2": "EVQLVESGGGLVQPGGSLRLSCAASGFTFSTYDMHWVRQATGKGLEWVSLIDTAGDTYYPDSVKGRFTISRENAKNSLYLQMNSLRAGDTAVYYCAREGWGYFDYWGQGALVTVSSASTKGPSVFPLAPSSKSTSGGTAALGCLVKDYFPEPVTVSWNSGALTSGVHTFPAVLQSSGLYSLSSVVTVPSSSLGTQTYICNVNHKPSNTKVDKKVEPKSCDKTHTCPPCPAPEAAGAPSVFLFPPKPKDTLMISRTPEVTCVVVDVSHEDPEVKFNWYVDGVEVHNAKTKPREEQYNSTYRVVSVLTVLHQDWLNGKEYKCKVSNKALPAPIEKTISKAKGQPREPQVCTLPPSRDELTKNQVSLSCAVKGFYPSDIAVEWESNGQPENNYKTTPPVLDSDGSFFLVSKLTVDKSRWQQGNVFSCSVMHEALHNRFTQKSLSLSPG", "light": "QSALTQPPSVSGSPGQSVTISCTGTSSDVGSYNRVSWYQQPPGTAPKLMIYEVSNRPSGVPDRFSGSKSGNTASLTISGLQAEDEADYYCSLYTGSSTVVFGGGTKVTVLGQPKAAPSVTLFPPSSEELQANKATLVCLISDFYPGAVTVAWKADSSPVKAGVETTTPSKQSNNKYAASSYLSLTPEQWKSHRSYSCQVTHEGSTVEKTVAPTECS"}, "B12": {"name": "DGL448 (bispecific antibody, human IgG1, lambda)", "heavy 1": "not shown", "heavy 2": "B11 heavy 2", "light": "B11 light"}, "B13": {"name": "DGL464 (bispecific antibody, V domains shown)", "V domain 1": "QVQLVESGGGLVQAGGSLRLSCAASGRAFSRYSMGWFRQAPGKEREFVAANYWSNGWTDYADTVKGRFSISRDNAKNTVYLQMNSLKPEDTAVYYCAGRSSSIPSADVVGYDYWGQGTQVTVEP", "V domain 2": "QVQLVESGGGLVQPGGSLRLSCAASGFTFSNYAMSWVRQAPGKGLEWVSAINSDGTSTSYADSVKGQFTISRDNAKNTLYLQMNSLKPEDTAVYYCTKWEGDTDSDYKFKDYWGQGTQVTVEP"}, "B14": {"name": "DGL445 (bispecific antibody, human IgG1, lambda)", "heavy 1": "not shown", "heavy 2": "QVQLVQPGAEVKKPGASVKVSCKASGYTFTGYYMHWVRQAPGQGLEWMGWINPKSGGTNYAQKFQGRVTMTRDTSISTAYMELTRLRSDDTAVYYCARDQGYGDYVLKHWGQGTLVTVSSASTKGPSVFPLAPSSKSTSGGTAALGCLVKDYFPEPVTVSWNSGALTSGVHTFPAVLQSSGLYSLSSVVTVPSSSLGTQTYICNVNHKPSNTKVDKKVEPKSCDKTHTCPPCPAPEAAGAPSVFLFPPKPKDTLMISRTPEVTCVVVDVSHEDPEVKFNWYVDGVEVHNAKTKPREEQYNSTYRVVSVLTVLHQDWLNGKEYKCKVSNKALPAPIEKTISKAKGQPREPQVCTLPPSRDELTKNQVSLSCAVKGFYPSDIAVEWESNGQPENNYKTTPPVLDSDGSFFLVSKLTVDKSRWQQGNVFSCSVMHEALHNRFTQKSLSLSPG", "light": "SYVLTQPPSVSVAPGQTARITCGGDNIGSKSVHWYQQKPGQAPVPVVYDDSDRPSGIPERFSGSNSGNTATLTISRVEAGDEADYYCQVWDSSSDHVVFGGGTKLTVLGQPKAAPSVTLFPPSSEELQANKATLVCLISDFYPGAVTVAWKADSSPVKAGVETTTPSKQSNNKYAASSYLSLTPEQWKSHRSYSCQVTHEGSTVEKTVAPTECS"}, "B15": {"name": "DGL585 (bispecific antibody, V domains shown)", "V domain 1": "QVQLVESGGGLVQAGGSLRLSCAASGRTFSSYVMGWFRQAPGQEREFVAAIMRNGIMTYYADSVKGRFTISRDNAKNTVYLQMNTLKPDDTAVYYCAAASRVGVSISQSSSYTSWGQGTQVTVEP", "V domain 2": "QVQLVESGGGLVRPGGSLRLSCAASGFTFSSNGMHWFRQAPGKGLEWVSSIGSGGTSIYYADSVKGRFTISRDNAKNTLYLQMNSLKSDDTAVYYCSKEVTGATRGQGTQVTVEP"}, "B16": {"name": "VHH25B1 (VHH)", "VHH": "B1 V domain 1 with E126S, P127S"}},
  "note": "Positions count from the first letter of the chain named.",
  "data": [
    {"target": "human IL-12 receptor (IL-12Rβ1 and IL-12Rβ2) on HEK-Blue IL-12 cells (human, UniProt P42701 24-662; Q99665 24-862)", "sequence (Q99665 24-862, chain 2 of 2, other chains not shown)": "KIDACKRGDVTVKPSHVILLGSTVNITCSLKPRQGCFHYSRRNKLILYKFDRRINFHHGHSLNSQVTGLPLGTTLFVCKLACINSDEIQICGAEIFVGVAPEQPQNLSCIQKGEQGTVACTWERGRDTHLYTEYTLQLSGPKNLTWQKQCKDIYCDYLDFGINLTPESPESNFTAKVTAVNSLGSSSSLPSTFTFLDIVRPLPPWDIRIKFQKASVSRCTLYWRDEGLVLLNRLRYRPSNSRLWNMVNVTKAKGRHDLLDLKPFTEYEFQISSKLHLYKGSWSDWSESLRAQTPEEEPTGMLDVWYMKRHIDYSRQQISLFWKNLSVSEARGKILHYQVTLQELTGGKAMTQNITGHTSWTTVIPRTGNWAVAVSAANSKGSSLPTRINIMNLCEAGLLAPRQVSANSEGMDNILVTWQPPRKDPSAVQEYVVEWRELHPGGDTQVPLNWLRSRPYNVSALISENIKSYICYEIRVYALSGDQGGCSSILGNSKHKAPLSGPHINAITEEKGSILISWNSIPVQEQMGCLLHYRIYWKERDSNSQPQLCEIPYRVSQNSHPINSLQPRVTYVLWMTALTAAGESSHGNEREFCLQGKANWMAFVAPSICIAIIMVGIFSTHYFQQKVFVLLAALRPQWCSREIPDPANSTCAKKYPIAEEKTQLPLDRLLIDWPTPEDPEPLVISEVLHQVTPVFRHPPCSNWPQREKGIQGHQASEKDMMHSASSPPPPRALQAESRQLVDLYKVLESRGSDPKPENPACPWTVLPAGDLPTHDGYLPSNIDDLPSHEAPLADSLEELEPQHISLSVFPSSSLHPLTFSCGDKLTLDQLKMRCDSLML", "assay": "cell-based or functional assay", "values": [
      {"binder": "B1", "EC50": "> 100 nM", "Max Absorbance": 0.47},
      {"binder": "B2", "EC50": "4e-09 M (implied)", "Max Absorbance": 0.4},
      {"binder": "B3", "Max Absorbance": 0.35},
      {"binder": "B4", "EC50": "> 100 nM", "Max Absorbance": 0.4},
      {"binder": "B5", "EC50": "> 100 nM", "Max Absorbance": 0.42},
      {"binder": "B6", "Max Absorbance": 0.37},
      {"binder": "B7", "EC50": "> 100 nM", "Max Absorbance": 0.41},
      {"binder": "B8", "EC50": "> 100 nM", "Max Absorbance": 0.43},
      {"binder": "B9", "EC50": "> 100 nM", "Max Absorbance": 0.41},
      {"binder": "B10", "Max Absorbance": 0.36},
      {"binder": "B11", "EC50": "4e-11 M (implied)", "Max Absorbance": 0.45},
      {"binder": "B12", "EC50": "1e-09 M (implied)", "Max Absorbance": 0.39},
      {"binder": "B13", "EC50": "> 100 nM", "Max Absorbance": 0.47},
      {"binder": "B14", "EC50": "> 100 nM", "Max Absorbance": 0.42},
      {"binder": "B15", "EC50": "3.2e-09 M (implied)", "Max Absorbance": 0.37}
    ]},
    {"target": "T1, human IL-12Rβ1-his (Acro Biosystems), biotinylated (human, UniProt P42701 24-545, biotinylated)", "T1 construct": "bought; captured on Neutravidin in the ELISA; also called Bio-huIL-12Rβ1-His", "assay": "ELISA, periplasmic extract", "values": [
      {"binder": "B16", "OD450 nm": 0.479}
    ]},
    {"target": "T2, human IL-12RB1 with C-terminal FLAG tag, transiently expressed on HEK-293T cells (human, UniProt P42701 24-662)", "T2 construct": "whole, on cells", "assay": "FACS, periplasmic extract, HEK-293T", "units": {"FOB": "fold"}, "values": [
      {"binder": "B16", "FOB": 160}
    ]},
    {"target": "T3, cyno IL-12RB1 with C-terminal FLAG tag, transiently expressed on HEK-293T cells (cyno, UniProt A0A2K5VWV1 24-662)", "T3 construct": "whole, on cells", "assay": "FACS, periplasmic extract, HEK-293T", "units": {"FOB": "fold"}, "values": [
      {"binder": "B16", "FOB": 121}
    ]}
  ]
}
